Changes are numbered by the printed parent chain. Values belong to the binder of their own block, whether it stands above or below them.
What was measured:
[1] = biological target: T1, recombinant human TSLP (hTSLP)-Fc (human, UniProt Q969D9 29-159, limits assumed); test: yeast surface display flow cytometry, 10 nM hTSLP-Fc; MFI normalized to expression and to the positive control
T1 construct: used for yeast surface display labelling; also called rhTSLP; not shown: Fc

[2] = biological target: T2, recombinant human IL-13 (rh-IL-13)-Fc (human, UniProt P35225 35-146, limits assumed); test: yeast surface display flow cytometry, 10 nM rh-IL-13-Fc; MFI normalized to expression and to the positive control
T2 construct: used for yeast surface display labelling; not shown: Fc (detected with anti human Fc)

[3] = biological target: T3, recombinant human OX40 tagged with histidine tag (hOX40-His) (human, UniProt P43489 29-216); test: yeast surface display scFv, flow cytometry, 90 nM hOX40-His
T3 construct: bought (Reprokine); also called hOX-His; not shown: histidine tag
T3 sequence (looked up): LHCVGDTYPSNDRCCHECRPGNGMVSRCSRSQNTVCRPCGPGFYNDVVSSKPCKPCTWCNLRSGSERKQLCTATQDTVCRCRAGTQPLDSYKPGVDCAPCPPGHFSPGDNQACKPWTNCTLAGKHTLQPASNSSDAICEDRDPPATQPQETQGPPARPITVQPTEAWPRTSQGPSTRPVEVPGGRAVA

T2 sequence (P35225 35-146 limits assumed): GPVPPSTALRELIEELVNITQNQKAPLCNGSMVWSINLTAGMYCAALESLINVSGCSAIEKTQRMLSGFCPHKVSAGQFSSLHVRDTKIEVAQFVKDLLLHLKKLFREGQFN

B1: C13 (scFv, V domains shown)
VH: QMQLVESGGGVVQPGRSLRLSCAASGFTFRTYGMHWVRQAPGKGLEWVAVIWYDGSNKHYADSVKGRFTITRDNSKNTLNLQMNSLRAEDTAVYYCARAPQWELVAEAFDLWGQGTMVTVSS
VL: SYVLTQPPSVSVAPGQTARITCGGNLLGSKLVHWYQQKPGQAPVLVVYDDGDRPSLIPERFSGSNSGNTATLTISRVEAGDEADYYCQVWDTSSDHVVFGGGTKLTVL
notes: also called C13-VH-L-VL
binding result [1]: binds

B2: C17 (scFv, V domains shown)
VH: B1 VH with V105T, A106S
VL: B1 VL with L27I, G51S, L56A
notes: also called C17-VH-L-VL
binding result [1]: binds

B3: C39 (scFv, V domains shown)
VH: B1 VH with V105T
VL: B1 VL with G51S, L56W
notes: also called C39-VH-L-VL
binding result [1]: binds
binding result [2]: binds

B4: C45 (scFv, V domains shown)
VH: B1 VH with V105T, A106S
VL: B1 VL with L27I, G51S, L56E, T92S, H96G
notes: also called C45-VH-L-VL
binding result [1]: binds

B5: C15 (scFv, V domains shown)
VH: B1 VH
VL: B1 VL with L27I, L56W, T92S, S93G, H96G
notes: also called C15-VH-L-VL
binding result [1]: binds

B6: C43 (scFv, V domains shown)
VH: B1 VH with E103Q, L111I
VL: B1 VL with L27I, G51S, L56A, H96G
notes: also called C43-VH-L-VL
binding result [1]: binds
binding result [2]: binds

B7: C26 (scFv, V domains shown)
VH: B1 VH with V105T
VL: B1 VL with L26I, L27I, L56G
notes: also called C26-VH-L-VL
binding result [1]: binds
binding result [2]: binds

B8: C37 (scFv, V domains shown)
VH: B1 VH with L111M
VL: B1 VL with L27I, G51S, L56R, T92S
notes: also called C37-VH-L-VL
binding result [1]: binds
binding result [2]: binds

Results, then the binder that gave them:

binding result [3]: binds
B9: 3212ACOXC14 (OX40 library) (scFv, V domains shown)
VH: QVQLVESGGGVVQPGRSLRLDCKASGIEFSNSGMHWVRQAPGKGLEWVAVIWYDGSKRYYADSVKGRFTISRDNSKNTLFLQMNSLRAEDTAVYYCATNDDYWGQGTLVTVSS
VL: EIVLTQSPATLSLSPGERATLSCRASQSVEHYLAWYQQKPGQAPRLLIYDASNRATGIPARFSGSGSGTDFTLTISSLEPEDFAVYYCQQYSNWPLTFGQGTKVEIK
notes: not shown: linker

binding result [3]: binds
B10: OX-Clone36 (OX40 library) (scFv, V domains shown)
VH: B9 VH with E28D, T98S
VL: B9 VL with E30I, S92D
notes: not shown: linker

binding result [3]: binds
B11: 3212ACOXC10 (OX40 library) (scFv, V domains shown)
VH: B9 VH with E28D, Y59L, T98S
VL: B9 VL with E30I, S92D
notes: not shown: linker

binding result [3]: binds
B12: OX-Clone71 (OX40 library) (scFv, V domains shown)
VH: B9 VH with E28D, T98S
VL: B9 VL with R54P
notes: not shown: linker

binding result [3]: binds
B13: 3212ACOXC21 (OX40 library) (scFv, V domains shown)
VH: B9 VH with T98S
VL: B9 VL with E30D, R54F
notes: not shown: linker

binding result [3]: binds
B14: 3212ACOXC31 (OX40 library) (scFv, V domains shown)
VH: B9 VH with E28T, R58A
VL: B9 VL with E30Y, S52E, S92N, N93D
notes: not shown: linker
